From PMC5566100

Target: IGFIIR extracellular domain (domains 10-14; M6PR) (human, UniProt P11717 1510-2108)
Experiment: SPR

Sequence of IGFIIR extracellular domain (domains 10-14; M6PR) (P11717 1510-2108): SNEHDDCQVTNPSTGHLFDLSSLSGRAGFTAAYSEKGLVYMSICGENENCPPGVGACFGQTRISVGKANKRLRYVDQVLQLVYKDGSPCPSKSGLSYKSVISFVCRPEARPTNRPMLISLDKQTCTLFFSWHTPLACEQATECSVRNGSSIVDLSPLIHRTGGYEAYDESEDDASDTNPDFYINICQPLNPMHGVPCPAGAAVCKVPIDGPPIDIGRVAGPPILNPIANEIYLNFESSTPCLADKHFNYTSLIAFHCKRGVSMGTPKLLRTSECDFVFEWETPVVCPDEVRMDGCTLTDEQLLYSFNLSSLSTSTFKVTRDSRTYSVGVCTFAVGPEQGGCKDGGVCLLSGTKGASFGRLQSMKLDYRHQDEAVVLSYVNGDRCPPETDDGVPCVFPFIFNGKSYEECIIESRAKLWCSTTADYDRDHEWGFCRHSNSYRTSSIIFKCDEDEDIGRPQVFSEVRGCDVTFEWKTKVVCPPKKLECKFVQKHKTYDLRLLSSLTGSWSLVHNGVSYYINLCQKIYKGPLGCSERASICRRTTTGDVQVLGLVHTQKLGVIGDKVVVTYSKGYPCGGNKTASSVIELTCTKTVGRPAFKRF

Binder	Kd [nM]
GGGCGCGTAGATGACGAGCAGTCCTAACATCGTTTAGGAC (structured_DNA) [DNA aptamer-20]	35.5
GGGCGCGUAGAUGACGAGCAGUCCUAACAUCGUUUAGGAC (structured_RNA) [RNA aptamer-20]	20
